Reference: patent publication US20220275095A1 (SURROZEN OPERATING, published 2022)
Substitutions are numbered along the chain they refer to. Values belong to the binder of their own block, whether it stands above or below them.

Assays:
human Fzd10 hinge region = molecular target: T1, human Fzd10 hinge region (human); assay: SPR
T1 construct: also called hFzd10L
T1 peptide: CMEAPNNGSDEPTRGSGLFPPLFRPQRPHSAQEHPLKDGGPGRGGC
Experimental: (§1) Certain VL and VH clones from Table 1 were PCR amplified from the phage clone and sub-cloned into pcDNA3.1 based mammalian expression vectors (Invitrogen/ThermoFisher) of human kappa or lambda light chain and human IgG1 heavy chain, respectively. Candidate IgGs were purified using Protein A affinity resin. The candidate library was captured on an anti-FC lawn. The capture lawn was prepared by direct amine coupling goat anti-human IgG Fc (Southern Biotech #2048-01) at 8000 RU on a HC200M Carterra sensor chip (Carterra 4297). Capture levels were at least 600 RU for each candidate IgG. Binding to all target peptides was measured at 25° by injecting a concentration series of each peptide in 1×PBST+0.5 mg/mL BSA (TEKnova P1192, VWR V0332). All peptides were injected at 4.12 nM, 12.3 nM, 37 nM, 111 nM, 333 nM, and 1000 nM. Two blank injections were run between each peptide concentration series. Each injection started with a one minute baseline determination, followed by a five minute association phase where peptides were injected, and finished with a 10 minute dissociation phase. Binding data was analyzed using NextGenKIT (Carterra). Blank injections and reference locations were subtracted from all runs prior to fitting a 1:1 binding model to the data. […] Interactions with an Rₘₐₓ less than 15 RU or weaker than 5 μM were considered non-binders.

mouse Fzd2 hinge region = molecular target: T2, mouse Fzd2 hinge region (mouse, UniProt Q9JIP6 155-206, limits assumed); assay: SPR
T2 construct: domain: hinge region; also called mFzd2L
Experimental: as §1

mouse Fzd3 hinge region = molecular target: T3, mouse Fzd3 hinge region (mouse, UniProt Q61086 133-165, limits assumed); assay: SPR
T3 construct: domain: hinge region; also called mFzd3L
T3 peptide (looked up): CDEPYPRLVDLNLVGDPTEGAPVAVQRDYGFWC
Experimental: as §1

mouse Fzd4 hinge region = molecular target: T4, mouse Fzd4 hinge region (mouse, UniProt Q61088 158-181, limits assumed); assay: SPR
T4 construct: domain: hinge region; also called mFzd4L
T4 peptide (looked up): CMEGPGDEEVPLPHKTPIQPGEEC
Experimental: as §1

mouse Fzd5 hinge region = molecular target: T5, mouse Fzd5 hinge region (mouse, UniProt Q9EQD0 147-182, limits assumed); assay: SPR
T5 construct: domain: hinge region; also called mFzd5L
T5 peptide (looked up): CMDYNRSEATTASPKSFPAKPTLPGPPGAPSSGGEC
Experimental: as §1

mouse Fzd6 hinge region = molecular target: T6, mouse Fzd6 hinge region (mouse, UniProt Q61089 129-161, limits assumed); assay: SPR
T6 construct: domain: hinge region; also called mFzd6L
T6 peptide (looked up): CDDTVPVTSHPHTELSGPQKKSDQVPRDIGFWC
Experimental: as §1

mouse Fzd7 hinge region = molecular target: T7, mouse Fzd7 hinge region (mouse, UniProt Q61090 160-208, limits assumed); assay: SPR
T7 construct: domain: hinge region; also called mFzd7L
T7 peptide (looked up): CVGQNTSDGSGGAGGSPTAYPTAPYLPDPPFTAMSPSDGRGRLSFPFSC
Experimental: as §1

mouse Fzd8 hinge region = molecular target: T8, mouse Fzd8 hinge region (mouse, UniProt Q61091 148-225, limits assumed); assay: SPR
T8 construct: domain: hinge region; also called mFzd8L; mFzd8
T8 sequence (peptide, looked up): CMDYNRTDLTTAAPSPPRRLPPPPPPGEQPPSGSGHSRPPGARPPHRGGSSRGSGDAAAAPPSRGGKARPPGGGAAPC
Experimental: as §1

mouse Fzd9 hinge region = molecular target: T9, mouse Fzd9 hinge region (mouse, UniProt Q9R216 153-197, limits assumed); assay: SPR
T9 construct: domain: hinge region; also called mFzd9
T9 peptide (looked up): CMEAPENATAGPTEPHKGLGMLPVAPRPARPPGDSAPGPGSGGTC
Experimental: as §1

human Fzd2 hinge region = molecular target: T10, human Fzd2 hinge region (human); assay: SPR
T10 construct: also called hFzd2L
T10 peptide: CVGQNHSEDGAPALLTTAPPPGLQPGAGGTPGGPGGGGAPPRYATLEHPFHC
Experimental: as §1

mouse Fzd10 hinge region = molecular target: T11, mouse Fzd10 hinge region (mouse, UniProt Q8BKG4 148-193, limits assumed); assay: SPR
T11 construct: domain: hinge region; also called mFzd10L
T11 peptide (looked up): T1 peptide with T13S, L18M, G44A
Experimental: as §1

human Fzd3 hinge region = molecular target: T12, human Fzd3 hinge region (human); assay: SPR
T12 construct: also called hFzd3L
T12 peptide: T3 peptide (looked up) with V14A, D16E
Experimental: as §1

human Fzd4 hinge region = molecular target: T13, human Fzd4 hinge region (human); assay: SPR
T13 construct: also called hFzd4L
T13 peptide: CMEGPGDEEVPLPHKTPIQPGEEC
Experimental: as §1

human Fzd5 hinge region = molecular target: T14, human Fzd5 hinge region (human); assay: SPR
T14 construct: also called hFzd5L
T14 peptide: T5 peptide (looked up) with S13P, K15R, S16P, S31A
Experimental: as §1

human Fzd6 hinge region = molecular target: T15, human Fzd6 hinge region (human); assay: SPR
T15 construct: also called hFzd6L
T15 peptide: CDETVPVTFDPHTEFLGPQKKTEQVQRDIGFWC
Experimental: as §1

human Fzd9 hinge region = molecular target: T16, human Fzd9 hinge region (human); assay: SPR
T16 construct: also called hFzd9L; hFzd9
T16 peptide: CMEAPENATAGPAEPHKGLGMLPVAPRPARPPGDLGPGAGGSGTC
Experimental: as §1

human Fzd1 hinge region [1] = molecular target: T17, human Fzd1 hinge region (human); assay: SPR; *** = 100 nM > KD > 10 nM
T17 construct: also called hFzd1L
T17 peptide: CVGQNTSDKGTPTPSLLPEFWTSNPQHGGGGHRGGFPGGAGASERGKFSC
Experimental: as §1

mouse Fzd1 hinge region [2] = molecular target: T18, mouse Fzd1 hinge region (mouse, UniProt O70421 222-271, limits assumed); assay: SPR; *** = 100 nM > KD > 10 nM
T18 construct: domain: hinge region; also called mFzd1L
T18 peptide (looked up): T17 peptide with H32Y, F36Y, A42T, S43V
Experimental: as §1

Fzd1 CRD = Fzd1 CRD (UniProt Q9UP38 105-232); assay: BLI (Octet Red 96), biotinylated Fzd1 CRD on streptavidin biosensor
Experimental: Binding kinetics of monospecific Fzd binders to either (CRD) or the extracellular hinge region (hinge) was determined by bio-layer interferometry (BLI) using Octet Red 96 (PALL ForteBio, Fremont, Calif.) instruments at 30° C., 1000 rpm with streptavidin (SA) biosensors. N-terminal biotinylated Fzd1 or Fzd2 CRD and Fzd1 or Fzd 2 hinge proteins were captured on the SA biosensor. Following capture of biotinylated-Fzd1 or Fzd2, the SA biosensor with captured […] was dipped into wells containing the relevant antibodies at 7 different concentrations in running buffer plus a well with only running buffer as a reference channel. KD was determined by global fitting. As shown in FIGS. 4A-4H these antibody fusion proteins only bound to either Fzd1 or Fzd2 protein with the hinge region, and not to the CRD domains alone.

human Fzd1 hinge region [3] = molecular target: T17, human Fzd1 hinge region; assay: SPR; **** = 10 nM > KD
Experimental: as §1

mouse Fzd1 hinge region [4] = molecular target: T18, mouse Fzd1 hinge region; assay: SPR; **** = 10 nM > KD
Experimental: as §1

human Fzd1 hinge region [5] = molecular target: T17, human Fzd1 hinge region; assay: SPR; ** = 1 uM > KD > 100 nM
Experimental: as §1

mouse Fzd1 hinge region [6] = molecular target: T18, mouse Fzd1 hinge region; assay: SPR; ** = 1 uM > KD > 100 nM
Experimental: as §1

hFzd2L = molecular target: T19, hFzd2L (human, UniProt Q14332 150-201); assay: phage ELISA, antigen on plate
T19 construct: ELISA antigen; also called human Fzd2 hinge region; Frizzled 2
Experimental: Detection of bound phage was determined calorimetrically by turnover of TMB substrate (Thermo Fisher Scientific, Waltham, Mass.) at […] by anti-M13-HRP antibody (GE Healthcare, Pittsburgh, Pa.). Clones were identified as binding to a Fzd receptor when the fold OD 450 nm over background was greater than a threshold level.

binding result (human Fzd10 hinge region): no binding (tested: 5 uM)
binding result (mouse Fzd2 hinge region): no binding (tested: 5 uM)
binding result (mouse Fzd3 hinge region): no binding (tested: 5 uM)
binding result (mouse Fzd4 hinge region): no binding (tested: 5 uM)
binding result (mouse Fzd5 hinge region): no binding (tested: 5 uM)
binding result (mouse Fzd6 hinge region): no binding (tested: 5 uM)
binding result (mouse Fzd7 hinge region): no binding (tested: 5 uM)
binding result (mouse Fzd8 hinge region): no binding (tested: 5 uM)
binding result (mouse Fzd9 hinge region): no binding (tested: 5 uM)
binding result (human Fzd2 hinge region): no binding (tested: 5 uM)
binding result (mouse Fzd10 hinge region): no binding (tested: 5 uM)
binding result (human Fzd3 hinge region): no binding (tested: 5 uM)
binding result (human Fzd4 hinge region): no binding (tested: 5 uM)
binding result (human Fzd5 hinge region): no binding (tested: 5 uM)
binding result (human Fzd6 hinge region): no binding (tested: 5 uM)
binding result (human Fzd9 hinge region): no binding (tested: 5 uM)
KD (human Fzd1 hinge region [1]): 10 to 100 nM
KD (mouse Fzd1 hinge region [2]): 10 to 100 nM
B1: 033S-E02 (antibody, V domains shown)
VH: QVQLVQSGAEVKKPGSSVKVSCKASGGTFTSYAISWVRQAPGQGLEWMGMINPSGGRTTYAQKFQGRVTITADESTSTAYMKLSSLRSEDTAVYYCAIRTIFGVVIDYWGQGTLVTVSS
VL: not shown
notes: human IgG1, human kappa or lambda light chain; also called 33SE2

binding result (Fzd1 CRD): no binding
B2: 033S-E02 Fab (Fab, V domains shown)
VH: B1 VH
VL: not shown
notes: also called 33SE2

binding result (human Fzd10 hinge region): no binding (tested: 5 uM)
binding result (mouse Fzd2 hinge region): no binding (tested: 5 uM)
binding result (mouse Fzd3 hinge region): no binding (tested: 5 uM)
binding result (mouse Fzd4 hinge region): no binding (tested: 5 uM)
binding result (mouse Fzd5 hinge region): no binding (tested: 5 uM)
binding result (mouse Fzd6 hinge region): no binding (tested: 5 uM)
binding result (mouse Fzd7 hinge region): no binding (tested: 5 uM)
binding result (mouse Fzd8 hinge region): no binding (tested: 5 uM)
binding result (mouse Fzd9 hinge region): no binding (tested: 5 uM)
binding result (human Fzd2 hinge region): no binding (tested: 5 uM)
binding result (mouse Fzd10 hinge region): no binding (tested: 5 uM)
binding result (human Fzd3 hinge region): no binding (tested: 5 uM)
binding result (human Fzd4 hinge region): no binding (tested: 5 uM)
binding result (human Fzd5 hinge region): no binding (tested: 5 uM)
binding result (human Fzd6 hinge region): no binding (tested: 5 uM)
binding result (human Fzd9 hinge region): no binding (tested: 5 uM)
KD (human Fzd1 hinge region [3]): < 10 nM
KD (mouse Fzd1 hinge region [4]): < 10 nM
B3: 033S-B03 (antibody, V domains shown)
VH: QVQLVQSGAEVKKPGSSVKVSCKASGYTFTGQYMHWVRQAPGQGLEWMGGIIPIFGTAHYPQKFQGRVTITADESTSTAYMELSSLRSEDTAVYYCARRSVAAGTPFTDYWGQGTLVTVSS
VL: not shown
notes: human IgG1, human kappa or lambda light chain; also called 33SB3

binding result (Fzd1 CRD): no binding
B4: 033S-B03 Fab (Fab, V domains shown)
VH: B3 VH
VL: not shown
notes: also called 33SB3

binding result (human Fzd10 hinge region): no binding (tested: 5 uM)
binding result (mouse Fzd2 hinge region): no binding (tested: 5 uM)
binding result (mouse Fzd3 hinge region): no binding (tested: 5 uM)
binding result (mouse Fzd4 hinge region): no binding (tested: 5 uM)
binding result (mouse Fzd5 hinge region): no binding (tested: 5 uM)
binding result (mouse Fzd6 hinge region): no binding (tested: 5 uM)
binding result (mouse Fzd7 hinge region): no binding (tested: 5 uM)
binding result (mouse Fzd8 hinge region): no binding (tested: 5 uM)
binding result (mouse Fzd9 hinge region): no binding (tested: 5 uM)
binding result (human Fzd2 hinge region): no binding (tested: 5 uM)
binding result (mouse Fzd10 hinge region): no binding (tested: 5 uM)
binding result (human Fzd3 hinge region): no binding (tested: 5 uM)
binding result (human Fzd4 hinge region): no binding (tested: 5 uM)
binding result (human Fzd5 hinge region): no binding (tested: 5 uM)
binding result (human Fzd6 hinge region): no binding (tested: 5 uM)
binding result (human Fzd9 hinge region): no binding (tested: 5 uM)
KD (human Fzd1 hinge region [5]): 100 to 1000 nM
KD (mouse Fzd1 hinge region [6]): 100 to 1000 nM
B5: 033S-D02 (antibody, V domains shown)
VH: QVQLVQSGAEVKKPGSSVKVSCKASGITFTSSAVHWVRQAPGQGLEWLGIINPSGGSTSYAQKFQGRVTITADESTSTAYMELSSLRSEDTAVYYCARRMVYAPYKDVWGKGTMVTVSS
VL: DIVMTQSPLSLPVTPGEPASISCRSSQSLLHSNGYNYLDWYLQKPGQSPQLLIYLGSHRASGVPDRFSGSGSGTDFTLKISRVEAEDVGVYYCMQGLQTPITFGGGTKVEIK
notes: human IgG1, human kappa or lambda light chain; also called 33SD2

binding result (Fzd1 CRD): no binding
B6: 033S-D02 Fab (Fab, V domains shown)
VH: B5 VH
VL: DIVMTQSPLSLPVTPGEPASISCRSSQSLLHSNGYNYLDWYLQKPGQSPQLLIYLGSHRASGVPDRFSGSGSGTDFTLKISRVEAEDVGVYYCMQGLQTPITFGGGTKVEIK
notes: also called 33SD2

binding result (hFzd2L): binds
B7: 031S-B02 (antibody, V domains shown)
VH: EVQLLESGGGLVQPGGSLRLSCAASGFTFSSYWMSWVRQAPGKGLEWVSAIGGSGANAYYADSVKGRFTISRDNSKNTLYLQMNSLRAEDTAVYYCVRDTNWAFDLWGQGTMVTVSS
VL: EIVMTQSPATLSVSPGERATLSCRASQSVSGSYLAWYQQKPGQAPRLLIYGASTRATGIPARFSGSGSGTEFTLTISSLQSEDFAVYYCQQYGSSPLTFGQGTKVEIK
notes: also called 31SB2
